System: Escherichia coli TOP10
Assay: shrunken log2 fold change of peptide-encoding DNA abundance (4.5 h post-induction vs induction); higher = less antimicrobial activity (less host growth inhibition)
Details: time post-induction: 4.5 h; library: site-saturation at positions 5, 18, 19, 20
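Note: peptides expressed intracellularly from a pBAD plasmid library in pooled LB shake-flask culture, induced with 0.3% L-arabinose, DNA abundance read by NGS, three biological replicates, DESeq2 with apeglm shrinkage.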

Sequence: RRIRKRPPRLPRPRPRPEQPPRP
- shrunken log2 fold change: 0.328

Sequence: RRIRPRPPRLPRPRPRPSLLPRP
- shrunken log2 fold change: -0.205

Sequence: RRIRCRPPRLPRPRPRPFTPPRP
- shrunken log2 fold change: -0.497

Sequence: RRIRYRPPRLPRPRPRPEYCPRP
- shrunken log2 fold change: -0.414

Sequence: RRIRPRPPRLPRPRPRPNTMPRP
- shrunken log2 fold change: -0.492

Sequence: RRIRSRPPRLPRPRPRPPCIPRP
- shrunken log2 fold change: -0.105

Sequence: RRIRHRPPRLPRPRPRPMFVPRP
- shrunken log2 fold change: 0.0711

Sequence: RRIRYRPPRLPRPRPRPNQYPRP
- shrunken log2 fold change: -1.18

Sequence: RRIRPRPPRLPRPRPRPVRDPRP
- shrunken log2 fold change: 0.146

Sequence: RRIRRRPPRLPRPRPRPGICPRP
- shrunken log2 fold change: 0.0771

Sequence: RRIRMRPPRLPRPRPRPGGDPRP
- shrunken log2 fold change: 1.58

Sequence: RRIRERPPRLPRPRPRPHIFPRP
- shrunken log2 fold change: 0.116

Sequence: RRIRARPPRLPRPRPRPPMAPRP
- shrunken log2 fold change: 0.484

Sequence: RRIRGRPPRLPRPRPRPLNWPRP
- shrunken log2 fold change: 0.0909

Sequence: RRIRCRPPRLPRPRPRPHIMPRP
- shrunken log2 fold change: -1.4

Sequence: RRIRTRPPRLPRPRPRPTNEPRP
- shrunken log2 fold change: -0.261

Sequence: RRIRLRPPRLPRPRPRPPVRPRP
- shrunken log2 fold change: 0.426

Sequence: RRIRQRPPRLPRPRPRPKNMPRP
- shrunken log2 fold change: -0.646

Sequence: RRIRIRPPRLPRPRPRPTYPPRP
- shrunken log2 fold change: -0.592

Sequence: RRIRGRPPRLPRPRPRPTNPPRP
- shrunken log2 fold change: 0.367

Sequence: RRIRARPPRLPRPRPRPHTVPRP
- shrunken log2 fold change: -0.0287

Sequence: RRIRDRPPRLPRPRPRPKVMPRP
- shrunken log2 fold change: -0.054

Sequence: RRIRVRPPRLPRPRPRPASWPRP
- shrunken log2 fold change: 0.294

Sequence: RRIRSRPPRLPRPRPRPGLGPRP
- shrunken log2 fold change: 0.485

Sequence: RRIRYRPPRLPRPRPRPQSIPRP
- shrunken log2 fold change: -0.0346

Sequence: RRIRYRPPRLPRPRPRPTYPPRP
- shrunken log2 fold change: 0.105

Sequence: RRIRSRPPRLPRPRPRPEMGPRP
- shrunken log2 fold change: 0.128

Sequence: RRIRRRPPRLPRPRPRPRNIPRP
- shrunken log2 fold change: -0.0349

Sequence: RRIRARPPRLPRPRPRPPSPPRP
- shrunken log2 fold change: 0.669

Sequence: RRIRNRPPRLPRPRPRPGRKPRP
- shrunken log2 fold change: 0.132

Sequence: RRIRKRPPRLPRPRPRPDGLPRP
- shrunken log2 fold change: -0.162

Sequence: RRIRMRPPRLPRPRPRPSKNPRP
- shrunken log2 fold change: 0.277

Sequence: RRIRWRPPRLPRPRPRPVHQPRP
- shrunken log2 fold change: 0.194

Sequence: RRIRPRPPRLPRPRPRPPVPPRP
- shrunken log2 fold change: 0.564

Sequence: RRIRIRPPRLPRPRPRPSAWPRP
- shrunken log2 fold change: 0.0616

Sequence: RRIRGRPPRLPRPRPRPYTPPRP
- shrunken log2 fold change: -0.526

Sequence: RRIRMRPPRLPRPRPRPYMKPRP
- shrunken log2 fold change: -0.0154

Sequence: RRIRQRPPRLPRPRPRPSQFPRP
- shrunken log2 fold change: 0.00374

Sequence: RRIRKRPPRLPRPRPRPDVLPRP
- shrunken log2 fold change: 0.0156

Sequence: RRIRFRPPRLPRPRPRPGQQPRP
- shrunken log2 fold change: -0.0159

Sequence: RRIRGRPPRLPRPRPRPCCVPRP
- shrunken log2 fold change: 0.751

Sequence: RRIRHRPPRLPRPRPRPGRIPRP
- shrunken log2 fold change: 0.136

Sequence: RRIRMRPPRLPRPRPRPERGPRP
- shrunken log2 fold change: 1.39

Sequence: RRIRNRPPRLPRPRPRPPLIPRP
- shrunken log2 fold change: -0.193

Sequence: RRIRHRPPRLPRPRPRPIVLPRP
- shrunken log2 fold change: 0.00695

Sequence: RRIRHRPPRLPRPRPRPRHKPRP
- shrunken log2 fold change: -0.556

Sequence: RRIRMRPPRLPRPRPRPFWTPRP
- shrunken log2 fold change: 0.0652

Sequence: RRIRTRPPRLPRPRPRPCVTPRP
- shrunken log2 fold change: -0.208

Sequence: RRIRCRPPRLPRPRPRPFVTPRP
- shrunken log2 fold change: 0.663

Sequence: RRIRERPPRLPRPRPRPQGSPRP
- shrunken log2 fold change: -0.107

Sequence: RRIRERPPRLPRPRPRPYFEPRP
- shrunken log2 fold change: -0.696

Sequence: RRIRRRPPRLPRPRPRPNCAPRP
- shrunken log2 fold change: 0.32

Sequence: RRIRMRPPRLPRPRPRPHVSPRP
- shrunken log2 fold change: -0.0138

Sequence: RRIRGRPPRLPRPRPRPPTQPRP
- shrunken log2 fold change: 0.727

Sequence: RRIRIRPPRLPRPRPRPAMGPRP
- shrunken log2 fold change: 1.17

Sequence: RRIRGRPPRLPRPRPRPYDMPRP
- shrunken log2 fold change: -0.0187

Sequence: RRIRFRPPRLPRPRPRPCTAPRP
- shrunken log2 fold change: -0.487

Sequence: RRIRQRPPRLPRPRPRPKFLPRP
- shrunken log2 fold change: -0.157

Sequence: RRIRYRPPRLPRPRPRPDLIPRP
- shrunken log2 fold change: -0.302

Sequence: RRIRDRPPRLPRPRPRPHLMPRP
- shrunken log2 fold change: -0.283

— the supplement of paper PMC9112550, “Optimization of the antimicrobial peptide Bac7 by deep mutational scanning” (BMC Biology, 2022)
